The source of these data is US20210380679A1 (INHIBRX BIOSCIENCES, published 2021).

Sequences and labels used below:
T1: human DLL3 (Delta-like ligand 3) (human, UniProt Q9NYJ7 27-618)
T1 construct: endogenous on SHP-77 cells; also called cell-surface DLL3
T1 sequence: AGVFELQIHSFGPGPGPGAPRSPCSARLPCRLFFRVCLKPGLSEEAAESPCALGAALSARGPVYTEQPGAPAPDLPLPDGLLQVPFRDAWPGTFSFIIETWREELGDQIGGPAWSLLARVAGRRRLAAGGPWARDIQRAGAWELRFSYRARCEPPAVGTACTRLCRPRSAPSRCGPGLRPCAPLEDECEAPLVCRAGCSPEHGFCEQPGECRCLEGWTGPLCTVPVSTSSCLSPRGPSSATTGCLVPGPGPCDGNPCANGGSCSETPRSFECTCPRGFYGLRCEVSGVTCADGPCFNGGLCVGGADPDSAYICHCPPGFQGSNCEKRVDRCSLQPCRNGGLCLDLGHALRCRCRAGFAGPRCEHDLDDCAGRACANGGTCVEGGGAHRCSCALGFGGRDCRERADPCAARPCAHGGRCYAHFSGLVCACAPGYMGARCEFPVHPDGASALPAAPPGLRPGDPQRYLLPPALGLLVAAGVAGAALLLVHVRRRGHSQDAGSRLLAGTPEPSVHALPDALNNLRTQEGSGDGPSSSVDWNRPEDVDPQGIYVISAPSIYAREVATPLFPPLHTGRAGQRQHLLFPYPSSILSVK

B1: hz5A8v12 (Fc fusion)
VHH: EVQLVESGGGEVQAGGSLRLSCAASGSIFSINAMGWYRQAPGKQRELVAVVSSDGRTTVAPSVKGRFTISRDNAKNTVYLQMSSLRAEDTAVYYCGVREWYSDSDWRDYEGQGTLVTVKP
notes: tested as VHH-human Fc; Fc not specified
B2: hz5A8v11 (Fc fusion)
VHH: B1 VHH with A14P, L47W
notes: as for B1
B3: hz5A8v10 (Fc fusion)
VHH: B1 VHH with A14P, G55A, S104A
notes: as for B1
B4: hz8E7v16 (Fc fusion)
VHH: EVQLVESGGGEVQPGGSLRLSCGPSEIITSDKSMGWVRQAPGKQRNLVAGISNVGSTNYAQSVKGRFTISRDNAKNTVYLQMSSLRAEDTAVYYCYARDFENEYWGQGTLVTVKP
notes: as for B1
B5: hz8E7v14 (Fc fusion)
VHH: B4 VHH with M34V
notes: as for B1
B6: hz8E7v15 (Fc fusion)
VHH: B4 VHH with V78L
notes: as for B1
B7: cx4896 (bispecific antibody)
chain 1: EVQLVESGGGEVQPGGSLRLSCAASGSIFSINAMGWYRQAPGKQRELVAGFTGDTNTIYAESVKGRFTISRDNAKNTVYLQMSSLRAEDTAVYYCAADVQLFSRDYEFYWGQGTLVTVKPDKTHTCPPCPAPGGPSVFLFPPKPKDTLMISRTPEVTCVVVDVSHEDPEVKFNWYVDGVEVHNAKTKPREEQYNSTYRVVSVLTVLHQDWLNGKEYKCKVSNKALPAPIEKTISKAKGQPREPQVYTLPPCRDELTKNQVSLWCLVKGFYPSDIAVEWESNGQPENNYKTTPPVLDSDGSFFLYSKLTVDKSRWQQGNVFSCSVMHEALHNHYTQKSLSLSPTGGGGGSGGGGGSGGGGGSEVQLVESGGGLVQPGGSLRLSCAASGFTFNTYAMNWVRQAPGKCLEWVARIRSKYNNYATYYADSVKGRFTISRDDAKNTLYLQMSSLRAEDTAVYYCVRHGNFGNSYVSWFAYWGQGTLVTVKPEVQLVESGGGEVQPGGSLRLSCGPSEIITSDKSVGWWRQAPGKQRNLVAGISNVGSTNYAQSVKGRFTISRDNAKNTLYLQMSSLRAEDTAVYYCYARDFENEYWGQGTLVTVKP
chain 2: DKTHTCPPCPAPGGPSVFLFPPKPKDTLMISRTPEVTCVVVDVSHEDPEVKFNWYVDGVEVHNAKTKPREEQYNSTYRVVSVLTVLHQDWLNGKEYKCKVSNKALPAPIEKTISKAKGQPREPQVCTLPPSRDELTKNQVSLSCAVKGFYPSDIAVEWESNGQPENNYKTTPPVLDSDGSFFLVSKLTVDKSRWQQGNVFSCSVMHEALHNRYTQKSLSLSPTGGGGGSGGGGGSGGGGGSQAVVTQEPSLTVSPGGTVTLTCGSSTGAVTTSNYANWVQQKPGQAFRGLIGGTNKRAPGVPARFSGSLLGGKAALTISGAQPEDEADYYCALWYSNHWVFGCGTKLEIKEVQLLESGGGEVQPGGSLRLSCAASGFSFSINAMGWYRQAPGKRREFVAAIESGRNTVYAESVKGRFTISRDNAKNTVYLQMSSLRAEDTAVYYCGLLKGNRVVSPSVAYWGQGTLVTVKP
notes: also carries a 41BB sdAb
B8: cx4888 (bispecific antibody)
chain 1: B7 chain 1 with G509A, P510A, Y565F
chain 2: B7 chain 2
notes: also carries a 41BB sdAb
B9: 3B12 (Fc fusion)
VHH: QVQLQESGGGLVQSGGSLRLSCAASGFSLDDYTIGWFRQAPGKEREGVSCISSSGGSTYYADSVKGRFTISRDNAENTVYLQMNSLKPEDTAVYYCATYCPVTIADELGFDYWGQGTLVTVKP
notes: as for B1
B10: 6B4 (Fc fusion)
VHH: QVTLRESGGGLVQAGGSLRLSCGASEITLSDKTVGWYRQAPGKQRVLVAVISNVDSTNYAHSVKGRFTISRDNAKNTVYLQMNSLKPEDTAVYYCYARDFEAEYWGQGTLVTVKP
notes: as for B1
B11: L6F1 (Fc fusion)
VHH: B10 VHH with T3Q, R5V, E6Q, T28I, L29F, H61Q, A102S, Q107R, L110Q
notes: as for B1
B12: L10D9 (Fc fusion)
VHH: EVQLVQSGGGLVQAGGSLRLSCAASGSILSINAMGWYRQPPGKQREMVAGFTGDGNTIYADSVKGRFTISRDNAKNTVYLQMNSLKPEDTAVYYCAADVQLFSRDYEFYWGQGTQVTVKP
notes: tested as VHH-human Fc
B13: L8E7 (Fc fusion)
VHH: EVQLQESGGGLVQAGGSLRLSCGPSEIITSDKSVGWWRQAPGKQRNLVAGISNVGSTNYAQSVKGRFTISRDNAKNTLFLQMNSLKPEDTAVYYCYARDFENEYWGRGTQVTVKP
notes: as for B1
B14: 3B4 (Fc fusion)
VHH: QVQLQQSGGGLVQAGGSLRLSCAASGSDFSINAMGWYRQGELVAGFTGDGNPIYADSVKGRFTISRGNAENTVSLQMNSLKPEDTAVYYCAADVKIGGDYEWYWGQGTQVTVKP
notes: as for B1
B15: hz5A8v5 (Fc fusion)
VHH: B1 VHH with A14P, A91G
notes: as for B1
B16: L5A8 (Fc fusion)
VHH: QVQLVQSGGGLVQAGESLRLSCAASGSIFSINAMGWYRQVLGKQRELVAVVSSDGRTTVAPSVKGRFTISRDNAKNTVSLQMNSLKPEDTGVYYCGVREWYSDSDWRDYEGQGTQVTVKP
notes: as for B1
B17: hz8E7v8 (Fc fusion)
VHH: B4 VHH with M34V, V37Y, V78L
notes: as for B1
B18: hz8E7v11 (Fc fusion)
VHH: B4 VHH with M34V, V37F, V78L
notes: as for B1
B19: hz8E7v5 (Fc fusion)
VHH: B4 VHH with M34V, V37W
notes: as for B1
B20: hz8E7v6 (Fc fusion)
VHH: B4 VHH with T29F, M34V, V37W, V78L
notes: as for B1
B21: hz8E7v9 (Fc fusion)
VHH: B4 VHH with M34V, V78L
notes: as for B1
B22: hz8E7v10 (Fc fusion)
VHH: B4 VHH with M34V, V37W, N46E, V78L
notes: as for B1

Where a chain is given by its changes, count along the chain named.

One experiment concerns the target T1, human DLL3 (Delta-like ligand 3). Briefly: flow cytometry, SHP-77 cells. For orientation: Flow cytometry measures light scatter and fluorescence of single cells or particles in a stream.
In the case of B1, the binding result is on record as “binds”.

Turning to B2, the binding result was “binds”.

Consider B3, for which the binding result is “binds”.

Consider B4, for which the binding result is listed as “binds”.

For B5, the binding result was “binds”.

Take B6: the binding result is recorded as “binds”.

For the next experiment the target is unchanged. Description: flow cytometry, SHP-77 cells. This is another data set of the same source. The method, then: (§1) Binding of exemplary DLL3-targeting constrained CD3 engaging constructs of the disclosure, referred to herein as cx4720, cx3715, cx4422, cx3708, cx4052, cx3985, cx4059, cx4087, cx4088, cx4895, cx3991, cx3711, cx4887, cx4896, cx4899, cx4406, cx3707, cx3710, cx4888 and cx4890, to CD3 on the surface of primary T cells was assessed via flow cytometry (SONY SA3800 spectral analyzer) using T-cell that were negatively enriched from PBMCs isolated from healthy human donor leukopaks. Representative DLL3-targeting constrained CD3 engaging constructs were assessed for binding to T cells and DLL3 expressing cells (SHP-77). Bound cx4720, cx3715, cx4422, cx3708, cx4052, cx3985, cx4059, cx4087, cx4088, cx4895, cx3991, cx3711, cx4887, cx4896, cx4899, cx4406, cx3707, cx3710, cx4888 and cx4890 was detected with fluorophore-conjugated secondary antibodies specific for the human Fc and binding was measured by flow cytometry. Cells incubated with secondary antibody only served as negative controls.
(§2) Table E4 summarizes the affinity of exemplary molecules for DLL3 or CD3, as determined from flow cytometry, in these studies.
Regarding B7, the affinity, expressed as Kd, was 0.339 nM.

For B8, the dissociation constant Kd worked out at 0.134 nM.

Another experiment deals with T2, CD3 on the surface of T cells (human, UniProt P07766 23-207).
T2 construct: whole, on cells; multi-chain complex; also called CD3 epsilon
T2 sequence (P07766 23-207): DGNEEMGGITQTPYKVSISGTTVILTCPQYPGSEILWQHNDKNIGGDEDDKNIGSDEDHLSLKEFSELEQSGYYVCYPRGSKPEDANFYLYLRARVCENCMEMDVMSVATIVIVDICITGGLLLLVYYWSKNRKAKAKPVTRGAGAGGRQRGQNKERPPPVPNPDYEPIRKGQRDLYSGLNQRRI
Briefly: flow cytometry, primary human T cells. The method, then: as §1, §2
As for B7, the dissociation constant (Kd) was above 200 nM.

As to B8, the Kd is above 200 nM.

The target of another experiment is T1, human DLL3 (Delta-like ligand 3). Briefly: flow cytometry, sdAb-Fc titrated on SHP-77 cells (DLL3 positive), APC anti-human Fc secondary. The method, then:
(§3) Specificity and relative affinity were assessed for purified sdAb-Fcs on DLL3-expressing cells. […] A titration series of the fusion protein was incubated with the DLL3-expressing cell lines (approximately 2.5×10⁴ to 5×10⁴ cells/well) for 30 minutes at 4 degrees Celsius in FACS Buffer (PBS 1% BSA, 0.1% NaN₃ pH 7.4) in 96-well plates. Following three wash steps in FACS buffer, an APC-conjugated anti-human Fcγ specific secondary antibody (Jackson ImmunoResearch) was added and incubated for 30 minutes at 4 degrees Celsius. Following three additional wash steps in FACS buffer bound antibody was detected via flow cytometry (IQue Intellicyte).
For B9, the binding result is recorded as “binds”.

Turning to B10, the binding result is “binds”.

With B11, the binding result is “binds”.

With B12, the binding result is reported as “binds”.

Regarding B13, the binding result is “binds”.

With B14, the “EC50 (read off the curve)” value is around 0.06 nM.

The next experiment has the same target. Description: flow cytometry, sdAb-Fc titrated on 293FS cells transfected with DLL3 (panel title DLL3-FL), APC anti-human Fc secondary. The method, then:
FIGS. 2A-L set forth a series of graphs depicting the ability of sdAb and humanized variants thereof targeting DLL3 to bind cell surface DLL3.
as §3
B15: the 50% effective concentration (EC50 (read off the curve)) was around 3 nM.

Consider B16, for which the “EC50 (read off the curve)” value was around 10 nM.

On to B17, for which the binding result was “binds”.

As to B18, the binding result was “binds”.

Consider B19, for which the binding result is “binds”.

On to B20, for which the binding result is recorded as “binds”.

B21: the binding result is on record as “binds”.

For B22, the binding result was “binds”.

Usually Kd stands for the equilibrium constant for the complex coming apart. One may read the EC50 (read off the curve) as the midpoint of the concentration-response curve. A lower EC50 (read off the curve) goes with a more potent agent.
